Patent US20130071417A1 (GOVERNING COUNCIL OF THE UNIVERSITY OF TORONTO, published 2013)

T1: His-tagged rCEA A3B3 domain (residues 445-656, C-terminal His-tag) (human, UniProt P06731 479-690)
T1 construct: also called rCEA A3B3 fragment
T1 sequence: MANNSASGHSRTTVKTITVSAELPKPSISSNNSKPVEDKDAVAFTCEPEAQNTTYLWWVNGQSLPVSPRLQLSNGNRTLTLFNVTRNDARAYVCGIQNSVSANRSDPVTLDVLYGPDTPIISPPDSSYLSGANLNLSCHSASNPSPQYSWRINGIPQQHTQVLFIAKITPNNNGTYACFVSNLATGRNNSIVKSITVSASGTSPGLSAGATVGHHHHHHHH

T2: full length tumour glycoform of human CEA (Sigma-Aldrich) (human, UniProt P06731 35-685, glycosylated (tumour glycoform))
T2 construct: mature; Bought protein; also called FL-CEA; full length CEA
T2 sequence (looked up): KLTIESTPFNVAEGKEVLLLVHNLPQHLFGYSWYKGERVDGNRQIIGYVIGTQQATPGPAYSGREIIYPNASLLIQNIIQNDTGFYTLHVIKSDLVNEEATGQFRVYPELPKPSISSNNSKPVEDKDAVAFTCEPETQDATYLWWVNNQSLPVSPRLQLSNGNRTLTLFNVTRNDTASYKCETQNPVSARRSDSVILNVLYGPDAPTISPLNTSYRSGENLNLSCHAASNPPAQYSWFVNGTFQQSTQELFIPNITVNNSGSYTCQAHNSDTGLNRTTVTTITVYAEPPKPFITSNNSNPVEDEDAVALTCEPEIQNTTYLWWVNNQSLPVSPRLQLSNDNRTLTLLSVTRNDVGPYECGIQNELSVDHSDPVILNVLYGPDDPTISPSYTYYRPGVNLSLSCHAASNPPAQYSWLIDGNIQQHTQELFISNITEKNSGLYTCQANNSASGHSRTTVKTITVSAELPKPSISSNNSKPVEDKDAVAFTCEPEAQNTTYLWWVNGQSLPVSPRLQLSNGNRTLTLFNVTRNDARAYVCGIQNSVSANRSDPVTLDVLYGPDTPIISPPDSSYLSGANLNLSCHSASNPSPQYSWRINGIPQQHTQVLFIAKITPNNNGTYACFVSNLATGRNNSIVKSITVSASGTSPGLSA

B1: FLAG-tagged rCEA N (CEA residues 1-214 with His-tag and FLAG epitope) (other, human, UniProt P06731 35-248, looked up, not shown: small tags and cut ends)
chain: KLTIESTPFNVAEGKEVLLLVHNLPQHLFGYSWYKGERVDGNRQIIGYVIGTQQATPGPAYSGREIIYPNASLLIQNIIQNDTGFYTLHVIKSDLVNEEATGQFRVYPELPKPSISSNNSKPVEDKDAVAFTCEPETQDATYLWWVNNQSLPVSPRLQLSNGNRTLTLFNVTRNDTASYKCETQNPVSARRSDSVILNVLYGPDAPTISPLNTS
notes: range 1-214; Made in E. coli; The extra C-terminal CEA residues were added for stability and yield; also called FLAG-tagged rCEA N domain; FLAG-tagged N domain

Tests used:
[1] = biological target: T1, His-tagged rCEA A3B3 domain (residues …); experiment: ELISA; target coated (2 µg per well), FLAG-tagged rCEA N titrated, anti-FLAG M2 HRP detection
Description: (§1) Briefly, 96-well flat-bottomed Falcon microtiter plates (Becton-Dickinson Biosciences; Franklin Lakes, N.J.) were coated with 2 μg of purified CEA modules or full length CEA per well. After blocking with PBS containing Tween (0.05% v/v) and bovine serum albumin (1% w/v), the plates were then incubated for one hour at room temperature with increasing concentrations of the FLAG-tagged rCEA N diluted in PBS-Tween (0.05%; 100 μL). The presence of bound FLAG-tagged rCEA was detected by incubating the plates for 1 hour at room temperature with horseradish peroxidase (HRP) coupled anti-FLAG monoclonal antibody M2 (1:5,000 dilution; Sigma-Aldrich). The chromogenic HRP substrate 3,3′,5,5′-tetramethylbenzidine (TMB; Sigma) was used to measure at 450 nm the amount of bound FLAG-tagged N domain.

[2] = biological target: T2, full length tumour glycoform of human …; experiment: as above
Description: as §1

[3] = biological target: B1; experiment: as above
Description: as §1

[4] = biological target: T1, His-tagged rCEA A3B3 domain (residues …); experiment: ELISA; untagged rCEA N coated, His-tagged module in solution, anti-His HRP detection

binding result [1] | binding result [2] | binding result [3] | binding result [4] | Binder
binds | binds | – | – | B1
– | – | binds | binds | untagged rCEA N domain (cleaved rCEA N, residues 1-132) (other, Made in E. coli, so it has no N-glycans; also called WT rCEA N domain; untagged WT rCEA N domain) KLTIESTPFNVAEGKEVLLLVHNLPQHLFGYSWYKGERVDGNRQIIGYVIGTQQATPGPAYSGREIIYPNASLLIQNIIQNDTGFYTLHVIKSDLVNEEATGQFRVYPELPKPSISSNNSKPVEDKDAVAFT
